In patent publication EP1262190A1 (Takeda Chemical Industries, Ltd., dated 2001):
Where no end group is shown, it is not given here.

Assays:
human 0T7T022 receptor = human 0T7T022 receptor (human); assay: cell-based or functional assay
[1] = target: rat cerebellum-derived novel G protein-coupled receptor protein r0T7T022L (rat); assay: cell-based or functional assay

Sequence of human 0T7T022 receptor (human) (Q9GZQ6 whole entry): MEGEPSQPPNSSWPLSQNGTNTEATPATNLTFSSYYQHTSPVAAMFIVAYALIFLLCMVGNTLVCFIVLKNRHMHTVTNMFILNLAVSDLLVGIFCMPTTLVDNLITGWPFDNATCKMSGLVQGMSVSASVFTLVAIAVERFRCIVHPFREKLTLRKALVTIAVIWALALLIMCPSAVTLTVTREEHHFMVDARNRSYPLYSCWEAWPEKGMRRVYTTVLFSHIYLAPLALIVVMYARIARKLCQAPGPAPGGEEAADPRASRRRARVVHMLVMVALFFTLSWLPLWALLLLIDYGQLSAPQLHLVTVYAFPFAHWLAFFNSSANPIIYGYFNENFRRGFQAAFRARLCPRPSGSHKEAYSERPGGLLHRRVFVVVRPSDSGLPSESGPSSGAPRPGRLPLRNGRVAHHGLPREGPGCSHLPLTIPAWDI

| Binder | ED50, inhibition of the cAMP level increased by forskolin (human 0T7T022 receptor) [nM] | IC50 of inhibiting the cAMP production (forskolin-stimulated) [1] [nM] |
| --- | --- | --- |
| NPFF [NPFF (peptide shown by Asn-Pro-Phe-Phe)] | 140 | – |
| LPLRF-NH2 [LPLRFamide (peptide shown by Leu-Pro-Leu-Arg-Phe-NH2)] | 36 | – |

Other lines, results leading:

| ED50, inhibition of the cAMP level increased by forskolin (human 0T7T022 receptor) [nM] | IC50 of inhibiting the cAMP production (forskolin-stimulated) [1] [nM] | Binder |
| --- | --- | --- |
| 4.5 | 0.5 | MPHSFANLPLRF-NH2 [peptide MPHSFANLPLRFamide (Met-Pro-His-Ser-Phe-Ala-Asn-Leu-Pro-Leu-Arg-Phe-NH2)] |
| ≥ 1000 | – | PQRF-NH2 [PQRFamide (peptide shown by Pro-Gln-Arg-Phe-NH2)] |
